B1: Complement factor H-related protein 4 (Homo sapiens), Q92496-1 (parent)
chain: MLLLINVILTLWVSCANGQEVKPCDFPEIQHGGLYYKSLRRLYFPAAAGQSYSYYCDQNFVTPSGSYWDYIHCTQDGWSPTVPCLRTCSKSDVEIENGFISESSSIYILNEETQYNCKPGYATAEGNSSGSITCLQNGWSTQPICIKFCDMPVFENSRAKSNGMWFKLHDTLDYECYDGYESSYGNTTDSIVCGEDGWSHLPTCYNSSENCGPPPPISNGDTTSFPQKVYLPWSRVEYQCQSYYELQGSKYVTCSNGDWSEPPRCISMKPCEFPEIQHGHLYYENTRRPYFPVATGQSYSYYCDQNFVTPSGSYWDYIHCTQDGWLPTVPCLRTCSKSDIEIENGFISESSSIYILNKEIQYKCKPGYATADGNSSGSITCLQNGWSAQPICIKFCDMPVFENSRAKSNGMRFKLHDTLDYECYDGYEISYGNTTGSIVCGEDGWSHFPTCYNSSEKCGPPPPISNGDTTSFLLKVYVPQSRVEYQCQSYYELQGSNYVTCSNGEWSEPPRCIHPCIITEENMNKNNIQLKGKSDIKYYAKTGDTIEFMCKLGYNANTSVLSFQAVCREGIVEYPRCE
partner: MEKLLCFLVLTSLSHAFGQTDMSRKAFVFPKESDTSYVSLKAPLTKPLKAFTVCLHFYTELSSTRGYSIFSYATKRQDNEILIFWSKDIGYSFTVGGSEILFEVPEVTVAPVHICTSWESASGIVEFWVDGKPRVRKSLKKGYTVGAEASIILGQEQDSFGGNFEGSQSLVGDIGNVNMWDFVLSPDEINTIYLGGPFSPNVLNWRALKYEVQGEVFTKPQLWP

Tests used:
Details in all cases: with crp_human CRP
crp_human CRP, P02741 [1] = variants of: B1
crp_human CRP, P02741 [2] = variants of: B1; remark: listed apart in the source
crp_human CRP, P02741 [3] = variants of: B1; remark: listed apart in the source

effect of a mutation on the interaction (crp_human CRP, P02741 [1]) | effect of a mutation on the interaction (crp_human CRP, P02741 [2]) | effect of a mutation on the interaction (crp_human CRP, P02741 [3]) | Variant
decreasing interaction strength | disrupting interaction strength | – | MLLLINVILTLWVSCANGQEVKPCDFPEIQHGGLYYASLAALYFPAAAGQSYSYYCDQNFVTPSGSYWDYIHCTQDGWSPTVPCLRTCSKSDVEIENGFISESSSIYILNEETQYNCKPGYATAEGNSSGSITCLQNGWSTQPICIKFCDMPVFENSRAKSNGMWFKLHDTLDYECYDGYESSYGNTTDSIVCGEDGWSHLPTCYNSSENCGPPPPISNGDTTSFPQKVYLPWSRVEYQCQSYYELQGSKYVTCSNGDWSEPPRCISMKPCEFPEIQHGHLYYENTRRPYFPVATGQSYSYYCDQNFVTPSGSYWDYIHCTQDGWLPTVPCLRTCSKSDIEIENGFISESSSIYILNKEIQYKCKPGYATADGNSSGSITCLQNGWSAQPICIKFCDMPVFENSRAKSNGMRFKLHDTLDYECYDGYEISYGNTTGSIVCGEDGWSHFPTCYNSSEKCGPPPPISNGDTTSFLLKVYVPQSRVEYQCQSYYELQGSNYVTCSNGEWSEPPRCIHPCIITEENMNKNNIQLKGKSDIKYYAKTGDTIEFMCKLGYNANTSVLSFQAVCREGIVEYPRCE [K37A;R40A;R41A]
– | decreasing interaction strength | with no effect | MLLLINVILTLWVSCANGQEVKPCDFPEIQHGGLYYKSARRLYFPAAAGQSYSYYCDQNFVTPSGSYWDYIHCTQDGWSPTVPCLRTCSKSDVEIENGFISESSSIYILNEETQYNCKPGYATAEGNSSGSITCLQNGWSTQPICIKFCDMPVFENSRAKSNGMWFKLHDTLDYECYDGYESSYGNTTDSIVCGEDGWSHLPTCYNSSENCGPPPPISNGDTTSFPQKVYLPWSRVEYQCQSYYELQGSKYVTCSNGDWSEPPRCISMKPCEFPEIQHGHLYYENTRRPYFPVATGQSYSYYCDQNFVTPSGSYWDYIHCTQDGWLPTVPCLRTCSKSDIEIENGFISESSSIYILNKEIQYKCKPGYATADGNSSGSITCLQNGWSAQPICIKFCDMPVFENSRAKSNGMRFKLHDTLDYECYDGYEISYGNTTGSIVCGEDGWSHFPTCYNSSEKCGPPPPISNGDTTSFLLKVYVPQSRVEYQCQSYYELQGSNYVTCSNGEWSEPPRCIHPCIITEENMNKNNIQLKGKSDIKYYAKTGDTIEFMCKLGYNANTSVLSFQAVCREGIVEYPRCE [L39A]
– | disrupting interaction strength | decreasing interaction strength | MLLLINVILTLWVSCANGQEVKPCDFPEIQHGGLYYKAARRLYFPAAAGQSYSYYCDQNFVTPSGSYWDYIHCTQDGWSPTVPCLRTCSKSDVEIENGFISESSSIYILNEETQYNCKPGYATAEGNSSGSITCLQNGWSTQPICIKFCDMPVFENSRAKSNGMWFKLHDTLDYECYDGYESSYGNTTDSIVCGEDGWSHLPTCYNSSENCGPPPPISNGDTTSFPQKVYLPWSRVEYQCQSYYELQGSKYVTCSNGDWSEPPRCISMKPCEFPEIQHGHLYYENTRRPYFPVATGQSYSYYCDQNFVTPSGSYWDYIHCTQDGWLPTVPCLRTCSKSDIEIENGFISESSSIYILNKEIQYKCKPGYATADGNSSGSITCLQNGWSAQPICIKFCDMPVFENSRAKSNGMRFKLHDTLDYECYDGYEISYGNTTGSIVCGEDGWSHFPTCYNSSEKCGPPPPISNGDTTSFLLKVYVPQSRVEYQCQSYYELQGSNYVTCSNGEWSEPPRCIHPCIITEENMNKNNIQLKGKSDIKYYAKTGDTIEFMCKLGYNANTSVLSFQAVCREGIVEYPRCE [S38A;L39A]
– | disrupting interaction strength | – | MLLLINVILTLWVSCANGQEVKPCDFPEIQHGGLYYAALRRLYFPAAAGQSYSYYCDQNFVTPSGSYWDYIHCTQDGWSPTVPCLRTCSKSDVEIENGFISESSSIYILNEETQYNCKPGYATAEGNSSGSITCLQNGWSTQPICIKFCDMPVFENSRAKSNGMWFKLHDTLDYECYDGYESSYGNTTDSIVCGEDGWSHLPTCYNSSENCGPPPPISNGDTTSFPQKVYLPWSRVEYQCQSYYELQGSKYVTCSNGDWSEPPRCISMKPCEFPEIQHGHLYYENTRRPYFPVATGQSYSYYCDQNFVTPSGSYWDYIHCTQDGWLPTVPCLRTCSKSDIEIENGFISESSSIYILNKEIQYKCKPGYATADGNSSGSITCLQNGWSAQPICIKFCDMPVFENSRAKSNGMRFKLHDTLDYECYDGYEISYGNTTGSIVCGEDGWSHFPTCYNSSEKCGPPPPISNGDTTSFLLKVYVPQSRVEYQCQSYYELQGSNYVTCSNGEWSEPPRCIHPCIITEENMNKNNIQLKGKSDIKYYAKTGDTIEFMCKLGYNANTSVLSFQAVCREGIVEYPRCE [K37A;S38A]
– | disrupting interaction strength | – | MLLLINVILTLWVSCANGQEVKPCDFPEIQHGGLYYAAARRLYFPAAAGQSYSYYCDQNFVTPSGSYWDYIHCTQDGWSPTVPCLRTCSKSDVEIENGFISESSSIYILNEETQYNCKPGYATAEGNSSGSITCLQNGWSTQPICIKFCDMPVFENSRAKSNGMWFKLHDTLDYECYDGYESSYGNTTDSIVCGEDGWSHLPTCYNSSENCGPPPPISNGDTTSFPQKVYLPWSRVEYQCQSYYELQGSKYVTCSNGDWSEPPRCISMKPCEFPEIQHGHLYYENTRRPYFPVATGQSYSYYCDQNFVTPSGSYWDYIHCTQDGWLPTVPCLRTCSKSDIEIENGFISESSSIYILNKEIQYKCKPGYATADGNSSGSITCLQNGWSAQPICIKFCDMPVFENSRAKSNGMRFKLHDTLDYECYDGYEISYGNTTGSIVCGEDGWSHFPTCYNSSEKCGPPPPISNGDTTSFLLKVYVPQSRVEYQCQSYYELQGSNYVTCSNGEWSEPPRCIHPCIITEENMNKNNIQLKGKSDIKYYAKTGDTIEFMCKLGYNANTSVLSFQAVCREGIVEYPRCE [K37A;S38A;L39A]
– | decreasing interaction strength | disrupting interaction strength | MLLLINVILTLWVSCANGQEVKPCDFPEIQHGGLYYKSLAALYFPAAAGQSYSYYCDQNFVTPSGSYWDYIHCTQDGWSPTVPCLRTCSKSDVEIENGFISESSSIYILNEETQYNCKPGYATAEGNSSGSITCLQNGWSTQPICIKFCDMPVFENSRAKSNGMWFKLHDTLDYECYDGYESSYGNTTDSIVCGEDGWSHLPTCYNSSENCGPPPPISNGDTTSFPQKVYLPWSRVEYQCQSYYELQGSKYVTCSNGDWSEPPRCISMKPCEFPEIQHGHLYYENTRRPYFPVATGQSYSYYCDQNFVTPSGSYWDYIHCTQDGWLPTVPCLRTCSKSDIEIENGFISESSSIYILNKEIQYKCKPGYATADGNSSGSITCLQNGWSAQPICIKFCDMPVFENSRAKSNGMRFKLHDTLDYECYDGYEISYGNTTGSIVCGEDGWSHFPTCYNSSEKCGPPPPISNGDTTSFLLKVYVPQSRVEYQCQSYYELQGSNYVTCSNGEWSEPPRCIHPCIITEENMNKNNIQLKGKSDIKYYAKTGDTIEFMCKLGYNANTSVLSFQAVCREGIVEYPRCE [R40A;R41A]

From IntAct's records for PubMed 20042240
